Here are results for three molecules from patent KR20140018819A (dated 2014).

B1: 항-TM4SF5 항체 #1 (scFv-Fc) (Fc fusion)
VH: EVQLQQFGAELVRPGASVTLSCKASGYTFTDYEMHWVKQTPVHGLEWIGAIDPETGGTAYNQKFKGKAILTADKSSSTAYMELRSLTSEDSAVYFCARLTLFYGNYDWPFDVWGTGTSVTVSS
VL: DIVMTQSQKFMSTSVGDRVSITCKASQNVRTAVAWYQQKPGQSPKLLIYWASTRHTGVPDRFTGSGSGTDFTLTISNVQSEDLADYFCQQYSSYPFTFGSGTKLEIK
B2: 항-TM4SF5 항체 #27 (scFv-Fc) (Fc fusion)
VH: QVQLQQFGAELVRPGASVTLSCKASGYTFTDYEMHWVKQTPVHGLEWIGAIDPETGGTAYNQKFKGKAILTADKSSSTAYMELRSLTSEDSAVYYCTRPYLGYWGQGTTVTVSS
VL: DAVVTQTPLSLPVSLGDQASISCRSSQSLVHSNGNTYLHWYLQKPGQSPKLLIYKVSNRFSGVPDRFSGSGSGTDFTLKISRVEAEDLGVYYCFQGSHIPLTFGAGTKLELK
B3: 항-TM4SF5 항체 #79 (scFv-Fc) (Fc fusion)
VH: GVQLQQSGAELVRPGASVKLSCKASGYTFTDYEMHWVKQTPVHGLEWIGAIDPETGGTAYNQKFKGKAILTADKSSSTAYMELRSLTSEDSAVYYCTVYGLAYWGQGTLVTVSA
VL: DVVMTQTPLSLPVSLGDQASISCRSSQSLVHSNGNTYLHWYLQKPGQSPKLLIYKVSNRFSGVPDRFSGSGSGTDFTLKISRVEAEDLGVYFCSQNTHVPYTFGGGTKLELK

The assay addresses T1, TM4SF5 (transmembrane 4 L six family member 5) 단백질 (human, UniProt O14894 1-197).
T1 sequence (looked up): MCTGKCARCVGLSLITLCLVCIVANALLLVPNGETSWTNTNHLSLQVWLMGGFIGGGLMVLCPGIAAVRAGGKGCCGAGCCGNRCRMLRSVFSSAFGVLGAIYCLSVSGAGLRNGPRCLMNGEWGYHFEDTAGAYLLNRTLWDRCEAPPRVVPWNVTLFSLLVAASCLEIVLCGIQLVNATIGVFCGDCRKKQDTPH
The experiment in a line: cell-based or functional assay.
For B1, the “간암세포주의 침윤 억제 (Transwell assay, Tp 세포, 항체 20㎍/㎖, 48시간)” value was found to be 83%.

For the molecule B2, the “간암세포주의 침윤 억제 (Transwell assay, Tp 세포, 항체 20㎍/㎖, 48시간)” value was 56%.

With B3, the “간암세포주의 침윤 억제 (Transwell assay, Tp 세포, 항체 20㎍/㎖, 48시간)” value was determined as 49%.
